Here are results for 13 molecules from US20140017242A1, “ANTI-BRADYKININ B2 RECEPTOR (BKB2R) MONOCLONAL ANTIBODY” (Diamedica, Inc., priority 2010, published 2014).

Changes are numbered by the printed parent chain. Where no end group is shown, it is not given here.

Sequences and labels used below:
T1: human BKB2R-derived epitope peptide (SEQ ID NO:73), PEG-biotin (human, also: PEG-biotin, site not given here)
T1 construct: also called immunogenic human BKB2R peptide fragment
T1 peptide: KEYSDEGHNVTAC

B1: L1/H1: humanized anti-BKB2R mAb, light chain L1 (SEQ ID NO:8), heavy chain H1 (SEQ ID NO:3), human IgG2/kappa (antibody, V domains shown)
VH: EVQLVESGGGLVQPGGSLRLSCAASGFTFSDYWMSWVRQAPGKGLEWVAEIRLKSDNYATHYAESVKGRFTISRDNAKNSLYLQMNSLRAEDTAVYYCTRDYYAMEYWGQGTLVTVSS
VL: DIVMTQSPLSLPVTPGEPASISCRSSQTIVHSNGKTYLEWYLQKPGQSPQLLIYKVSNRFSGVPDRFSGSGSGTDFTLKISRVEAEDVGVYYCFQASHVPYTFGQGTKLEIK
modifications: Humanized H1 Heavy Chain Variable Region VH; Humanized L1 Light Chain Variable Region VL
B2: L1/HC: humanized light chain L1 (SEQ ID NO:8) with HC, the mouse original 5F12G1 VH (antibody)
heavy: EVKLEESGGGLVQPGGSMKLSCVVSGFTFSDYWMSWVRHSPEMGLEWVAEIRLKSDNYATHYAESVKGRFTISRDDSKSRLYLQINSLRGEDTGIYYCTRDYYAMEYWGQGTSVTVSS
light: DIVMTQSPLSLPVTPGEPASISCRSSQTIVHSNGKTYLEWYLQKPGQSPQLLIYKVSNRFSGVPDRFSGSGSGTDFTLKISRVEAEDVGVYYCFQASHVPYTFGQGTKLEIKRTVAAPSVFIFPPSDEQLKSGTASVVCLLNNFYPREAKVQWKVDNALQSGNSQESVTEQDSKDSTYSLSSTLTLSKADYEKHKVYACEVTHQGLSSPVTKSFNRGEC
modifications: left off: a dimerising Fc or GST
B3: H39/L37: humanized anti-BKB2R mAb, heavy chain H39 (SEQ ID NO:7), light chain L37 (SEQ ID NO:10) (antibody, V domains shown)
VH: EVKLVESGGGLVQPGGSLRLSCAVSGFTFSDYWMDWVRQAPGKGLEWVAEIRLKSDNYATHYAASVKGRFTISRDDSKSRLYLQMNSLKTEDTAVYYCTRDYYAMEYWGQGTTVTVSS
VL: B1 VL with S7T, P12S, E17Q, R24K, E39Y, N58S
modifications: Humanized H39 Heavy Chain Variable Region VH; Humanized L37 Light Chain Variable Region VL
B4: H38/L38: humanized anti-BKB2R mAb, heavy chain H38 (SEQ ID NO:6), light chain L38 (SEQ ID NO:11) (antibody, V domains shown)
VH: B1 VH with V5L, R19K, A24V, A49S, E64D, N76D, A77S, S80T
VL: B1 VL with S7T, P15S, E39D, F60A, Q105G, L109V
modifications: Humanized H38 Heavy Chain Variable Region VH; Humanized L38 Light Chain Variable Region VL
B5: humanized anti-BKB2R antibody H37/L37 (antibody, human IgG2, kappa, V domains shown)
VH: B3 VH with K3Q, V24A, A49G, S79N, R80S
VL: DIVMTQTPLSLSVTPGQPASISCKSSQTIVHSNGKTYLYWYLQKPGQSPQLLIYKVSSRFSGVPDRFSGSGSGTDFTLKISRVEAEDVGVYYCFQASHVPYTFGQGTKLEIKR
B6: humanized anti-BKB2R antibody H39/L38 (antibody, human IgG2, kappa, V domains shown)
VH: B3 VH
VL: B5 VL with S12P, P15S, Q17E, K24R, Y39D, S58N, F60A, Q105G, L109V
B7: humanized anti-BKB2R antibody H38/L38 (antibody, human IgG2, kappa, V domains shown)
VH: B1 VH with V5L, R19K, A24V, A49S, E64D, N76D, A77S, S80T
VL: B5 VL with S12P, P15S, Q17E, K24R, Y39D, S58N, F60A, Q105G, L109V
B8: humanized anti-BKB2R antibody H38/L39 (antibody, human IgG2, kappa, V domains shown)
VH: B1 VH with V5L, R19K, A24V, A49S, E64D, N76D, A77S, S80T
VL: B5 VL with I2V, Y39E, S58N
B9: humanized anti-BKB2R antibody H39/L37 (antibody, human IgG2, kappa, V domains shown)
VH: B3 VH
VL: B5 VL
B10: humanized anti-BKB2R antibody H37/L38 (antibody, human IgG2, kappa, V domains shown)
VH: B3 VH with K3Q, V24A, A49G, S79N, R80S
VL: B5 VL with S12P, P15S, Q17E, K24R, Y39D, S58N, F60A, Q105G, L109V
B11: humanized anti-BKB2R antibody H39/L39 (antibody, human IgG2, kappa, V domains shown)
VH: B3 VH
VL: B5 VL with I2V, Y39E, S58N
B12: humanized anti-BKB2R antibody H37/L39 (antibody, human IgG2, kappa, V domains shown)
VH: B3 VH with K3Q, V24A, A49G, S79N, R80S
VL: B5 VL with I2V, Y39E, S58N
B13: humanized anti-BKB2R antibody H38/L37 (antibody, human IgG2, kappa, V domains shown)
VH: B1 VH with V5L, R19K, A24V, A49S, E64D, N76D, A77S, S80T
VL: B5 VL

One experiment has as its target T2, human BKB2R-derived epitope peptide, SE ID NO:73 (Homo sapiens, UniProt P30411).
T2 construct: purchased Biosyn, Lewisville, Tex
Nature of the experiment: ForteBio Octet binding kinetics to the BKB2R epitope peptide. The settings on record: Conc. 250 nM. The procedure: Proteins corresponding to all combinations of humanized or chimeric (5F12G1 VH and VL on human IgG2 backbone) antibodies were tested for binding to the human BKB2R-derived epitope peptide, SE ID NO:73.
A ForteBio (Menlo Park, Calif., USA) Octet® platform was used to analyze the binding affinities and binding characteristics of the humanized monoclonal antibodies to the peptide epitope (SEQ ID NO:73) and compared to the original mouse monoclonal 5F12G1. This platform employed label-free technology for measuring biomolecular interactions by optical analysis of the interference pattern of white light reflected from two surfaces: a layer of immobilized protein on the biosensor tip, and an internal reference layer. Any change in the number of molecules bound to the biosensor tip caused a shift in the interference pattern that was measured in real-time. Binding specificity, and rates of association and dissociation were monitored.
(§1) For the Octet study, antibodies were analyzed by kinetic titration of the antibodies. Antibodies were prepared in kinetic buffer (0.001 M phosphate buffered saline (NaCl 0.0138 M; KCl-0.00027 M); pH 7.4, at 25° C., 0.1 mg/ml BSA, 0.002% Tween and 0.005% Sodium Azide) followed by 1:2 serial dilutions.
(§2) Sensor Prep: Streptavidin biosensors (FortéBio Inc, Menlo Park, Calif.) were coated by incubation in a solution containing a peptide ([…]-PEG-biotin) (Biosyn, Lewisville, Tex.) at 50 μg/ml (300 seconds/1000 rpm shaking). 96 well half-volume plates were used for testing. 90 μl of sample was plated per well. Sensors were allowed to equilibrate to baseline in kinetic buffer (60 seconds/1000 rpm). The sensors were then placed into the various antibody dilutions to allow binding (association) to the probe for 500 seconds/1000 rpm, and measurements were taken. The sensors were then moved into kinetic buffer without antibody for dissociation (500 seconds/1000 rpm), and measurements were taken. Octet system software calculated kinetic constants for on rate/off rate/affinity.
[…] […] Each concentration was tested twice. The HC and LC represented the mouse original 5F12G1 VH and VL sequences.
Regarding B1, the “kdis” value was determined as 0.701 s⁻¹ and the “kon” value was 1.59e+06 M⁻¹ s⁻¹.
For B2 the same measures were 0.728 s⁻¹ and 239000 M⁻¹ s⁻¹.

The same experiment, now with this note: Conc. 500 nM.
For the molecule B3, the “kdis” value turned out to be 0.0288 s⁻¹ and the “kon” value was found to be 1.23e+06 M⁻¹ s⁻¹.
For B4 the same measures were 0.00763 s⁻¹ and 3.06e+06 M⁻¹ s⁻¹.
B1: the “kdis” value was determined as 0.942 s⁻¹ and the “kon” value came out at 404000 M⁻¹ s⁻¹.
For B2 the same measures were 2.16 s⁻¹ and 543000 M⁻¹ s⁻¹.

Staying with this experiment, now noted: Octet, epitope peptide.
For the molecule B3, the “binding compared with the original mouse monoclonal antibody” value is recorded as “stronger binding (lower KD)”.
Turning to B4, the “binding compared with the original mouse monoclonal antibody” value is “stronger binding (lower KD)”.

The target in the next experiment is T1, human BKB2R-derived epitope peptide …. Nature of the experiment: BLI (Octet), peptide-PEG-biotin on streptavidin sensor, antibody 500 nM.
Conditions: not given
As for the experimental part: as §1, §2
For test humanized monoclonal antibodies, the highest concentration used was 500 nM followed by 1:2 dilutions. Each concentration was tested twice. The HC and LC represented the mouse original 5F12G1 VH and VL sequences.
For B5, binding was characterised by a dissociation constant (Kd) of 758 nM, the “Max Response” value is 0.12, the koff was 1.18 s⁻¹ and the kon was 1.55e+06 M⁻¹ s⁻¹.
The corresponding values for B6 are 761 nM, 0.143, 4.9 s⁻¹ and 6.44e+06 M⁻¹ s⁻¹.
For B7 the same measures were 2.49 nM, 0.132, 0.00763 s⁻¹ and 3.06e+06 M⁻¹ s⁻¹.
With B8, the Kd is 93.2 nM, the “Max Response” value is 0.0681, the koff stood at 106 s⁻¹ and the kon is 1.14e+09 M⁻¹ s⁻¹.
For the molecule B9, the Kd was determined as 23.4 nM, the “Max Response” value turned out to be 0.119, the dissociation rate constant (koff) was found to be 0.0288 s⁻¹ and the kon was 1.23e+06 M⁻¹ s⁻¹.
For B10 the same measures were 220 nM, 0.173, 2.08 s⁻¹ and 9.47e+06 M⁻¹ s⁻¹.
The corresponding values for B11 are 1730 nM, 0.0915, 1.26 s⁻¹ and 729000 M⁻¹ s⁻¹.
For B12 the same measures were 1230 nM, 0.121, 1.98 s⁻¹ and 1.11e+06 M⁻¹ s⁻¹.
On to B13, for which the affinity, expressed as Kd, was 3110 nM; the “Max Response” value was 0.577; the koff worked out at 29.4 s⁻¹; the on-rate constant (kon) was found to be 9.44e+06 M⁻¹ s⁻¹.
